Experiments:
Assay in all cases: latex bead solid phase immunoassay read by flow cytometry
[1] = target: mouse IgG2b (native, on latex beads) (mouse)
[2] = target: mouse IgG1 (native, on latex beads) (mouse)
[3] = target: mouse IgA (native, on latex beads) (mouse)
[4] = target: mouse IgG2a (native, on latex beads) (mouse)
[5] = target: mouse IgG3 (native, on latex beads) (mouse)
[6] = target: mouse IgM (native, on latex beads) (mouse)

Measured: fold lower mean fluorescence intensity than beads with catfish IgM

Sequence of mouse IgM (native, on latex beads) (mouse) (P01872 whole entry, chain 1 of 3, other chains not shown): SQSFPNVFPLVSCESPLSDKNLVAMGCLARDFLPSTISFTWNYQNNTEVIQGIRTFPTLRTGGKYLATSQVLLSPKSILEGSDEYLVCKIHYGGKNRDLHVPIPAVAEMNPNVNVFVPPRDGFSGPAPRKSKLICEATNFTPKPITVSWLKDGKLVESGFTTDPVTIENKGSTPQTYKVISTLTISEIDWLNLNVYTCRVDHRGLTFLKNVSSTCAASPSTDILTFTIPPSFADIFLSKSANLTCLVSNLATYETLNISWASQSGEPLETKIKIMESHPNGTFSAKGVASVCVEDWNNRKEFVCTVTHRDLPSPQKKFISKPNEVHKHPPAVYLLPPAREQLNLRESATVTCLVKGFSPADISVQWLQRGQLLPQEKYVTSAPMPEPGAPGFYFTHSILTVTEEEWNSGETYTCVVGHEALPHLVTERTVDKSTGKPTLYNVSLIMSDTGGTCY
Sequence of mouse IgM (native, on latex beads) (mouse) (P01592 22-159, chain 3 of 3, other chains not shown, further chain): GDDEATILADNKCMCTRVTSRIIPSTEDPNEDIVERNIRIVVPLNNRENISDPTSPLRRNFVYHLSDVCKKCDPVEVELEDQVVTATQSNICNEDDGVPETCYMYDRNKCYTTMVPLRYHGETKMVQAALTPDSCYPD
Sequence of mouse IgG2a (native, on latex beads) (mouse) (P01863 whole entry, chain 1 of 2, other chains not shown): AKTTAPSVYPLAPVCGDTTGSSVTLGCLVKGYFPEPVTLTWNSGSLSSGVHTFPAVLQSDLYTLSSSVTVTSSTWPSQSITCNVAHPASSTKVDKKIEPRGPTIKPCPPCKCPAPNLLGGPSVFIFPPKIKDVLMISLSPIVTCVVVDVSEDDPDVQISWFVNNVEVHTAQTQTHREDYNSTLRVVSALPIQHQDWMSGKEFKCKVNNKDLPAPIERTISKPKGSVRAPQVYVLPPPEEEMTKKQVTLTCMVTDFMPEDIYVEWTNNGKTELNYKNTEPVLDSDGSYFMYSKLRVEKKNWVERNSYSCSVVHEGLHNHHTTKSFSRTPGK

recombinant IpFcRI (D1-D2-D3), channel catfish soluble FcμR (receptor)
5 fold: all assays above

From PMC2830281
